Two molecules from patent US20140356384A1 (COLE POLYTECHNIQUE F D RALE DE LAUSANNE EPFL, published 2014) can be followed below.

Assay [1] addresses T1, mouse glycophorin-A (GYPA) on the erythrocyte membrane (mouse, UniProt P14220 1-168). Nature of the assay: equilibrium binding to mouse erythrocytes by flow cytometry, one-site binding fit. (In general: Flow cytometry measures light scatter and fluorescence of single cells or particles in a stream.)
The target in assay [2] is T1, mouse glycophorin-A (GYPA) on the …. Nature of the assay: flow cytometry of mouse erythrocytes incubated with the OVA conjugate, OVA detected on the cell surface.

B1: ERY1-OVA (ERY1 peptide chemically conjugated to ovalbumin through SMCC) (other)
peptide: WMVLPWLPGTLDGGSGCRG
chain: GSIGAASMEFCFDVFKELKVHHANENIFYCPIAIMSALAMVYLGAKDSTRTQINKVVRFDKLPGFGDSIEAQCGTSVNVHSSLRDILNQITKPNDVYSFSLASRLYAEERYPILPEYLQCVKELYRGGLEPINFQTAADQARELINSWVESQTNGIIRNVLQPSSVDSQTAMVLVNAIVFKGLWEKAFKDEDTQAMPFRVTEQESKPVQMMYQIGLFRVASMASEKMKILELPFASGTMSMLVLLPDEVSGLEQLESIINFEKLTEWTSSNVMEERKIKVYLPRMKMEEKYNLTSVLMAMGITDVFSSSANLSGISSAESLKISQAVHAAHAEINEAGREVVGSAEAGVDAASVSEEFRADHPFLFCIKHIATNAVLFFGRCVSP
modifications: lysine side chains carry SMCC linked to the cysteine of the ERY1 peptide; C-terminal amide (CONH2); cysteine side chain conjugated through SMCC to lysine side chains of OVA
notes: also called ERY1-conjugated protein
Take B1: the equilibrium dissociation constant (Kd) (as a rule, the free concentration of one partner at which half of the binding sites on the other are occupied at equilibrium, for simple one-to-one binding) in assay [1] turned out to be 6.2 nM.

B2: MIS-OVA (OVA conjugated with the mismatch peptide through SMCC) (other)
peptide: PLLTVGMDLWPWGGSGCRG
chain: GSIGAASMEFCFDVFKELKVHHANENIFYCPIAIMSALAMVYLGAKDSTRTQINKVVRFDKLPGFGDSIEAQCGTSVNVHSSLRDILNQITKPNDVYSFSLASRLYAEERYPILPEYLQCVKELYRGGLEPINFQTAADQARELINSWVESQTNGIIRNVLQPSSVDSQTAMVLVNAIVFKGLWEKAFKDEDTQAMPFRVTEQESKPVQMMYQIGLFRVASMASEKMKILELPFASGTMSMLVLLPDEVSGLEQLESIINFEKLTEWTSSNVMEERKIKVYLPRMKMEEKYNLTSVLMAMGITDVFSSSANLSGISSAESLKISQAVHAAHAEINEAGREVVGSAEAGVDAASVSEEFRADHPFLFCIKHIATNAVLFFGRCVSP
modifications: lysine side chains carry SMCC linked to the cysteine of the MIS peptide; C-terminal amide (CONH2); cysteine side chain conjugated through SMCC to lysine side chains of OVA
For B2, the binding result in assay [2] is “no binding”.
